Results published in the supplement of paper PMC9170038.

Legend:
MS2 coat protein [1] = assay: apparent KD of MS2 coat protein; designed switch direction (-1 OFF switch, 1 ON switch): 1; higher = weaker reporter binding
How it was run: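 Stalled E. coli RNA polymerase transcribed designed RNA switches on Illumina chips, which were then titrated with SNAP-549-labelled MS2 coat protein, doubling from 0.7 or 1.5 nM to 3 µM. Steps lasted from 0.8–1.5 h at the lowest concentration to 10–20 min at the highest. The apparent KD is each design's median over clusters of curve-fitted normalised fluorescence.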

MS2 coat protein [2] = assay: apparent KD of MS2 coat protein; higher = weaker reporter binding; details: Eterna round: R107
How it was run: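 The buffer was 100 mM Tris-HCl pH 7.5 with 80 mM KCl and 4 mM MgCl2, used without or with constant ligand. In it, RNA switches transcribed on-chip from Illumina sequencing clusters were titrated with SNAP-549-labelled MS2 coat protein in twofold steps from 0.7 or 1.5 nM to 3 µM. Apparent KD for each design is the median of its normalised cluster binding-curve fits.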

[3] = Eterna round: R95, input ligand: FMN 200 uM
[4] = Eterna round: R95, input ligand: microRNA oligo, concentration not stated
[5] = Eterna round: R95, input ligand: none
[6] = input ligand: microRNA oligo, concentration not stated
[7] = input ligand: theophylline 20 uM
[8] = input ligand: tryptophan 2.4 mM
[9] = input ligand: theophylline 2 mM

Sequence	apparent KD of MS2 coat protein (MS2 coat protein [1]; input ligand: FMN 200 uM)	apparent KD of MS2 coat protein (MS2 coat protein [1]; [6])	apparent KD of MS2 coat protein (MS2 coat protein [1]; input ligand: none)	apparent KD of MS2 coat protein (MS2 coat protein [2]; input ligand: arginine 13.2 mM)	apparent KD of MS2 coat protein (MS2 coat protein [2]; [7])	further results
AGUCCAGCCUGAGCUGGACAAAAGCAUGUACAUGAGGAUCACCCAUGUUCAUGUACAAGCUUUUUGCUCGUCUUAUG [salish99_208a_r3_051] (puzzle: Sensor for hsa-mir-208a)	–	–	–	–	–	apparent KD of MS2 coat protein (MS2 coat protein [1]; [3]): 1040 nM; apparent KD of MS2 coat protein (MS2 coat protein [1]; [4]): 17 nM; apparent KD of MS2 coat protein (MS2 coat protein [1]; [5]): 634 nM
GCCGCGUUUCGCGCCUACAUGAGGAUCACCCAUGUUUGUAGGCAGGAUAUCGUUUGCUUUGCAAUCGAGAAGGGCUGUUGUGGC [salish99_SSNG3_R04_014] (Eterna round: R96, puzzle: Same State NG 3)	33 nM	44.6 nM	56.6 nM	–	–	–
GUUACAUGAGGAUCACCCAUGUAUGUGUGGGAGUAAGUGUCUUAGGAUAUCUGUUAUUUAACUUAAGAGAAGGAAGAUUGUUGU [JMF's solution 43] (Eterna round: R96, puzzle: Same State NG 3)	108 nM	65.4 nM	105 nM	–	–	–
UGGCUGGUGAUAGGAUAUACAUGAGGAAUCCUCGUAGAAGGAUCACGACAUGAGGAUCACCCAUGUAGCCGUCCGUAGACGGCU [salish99_SSNG1_r04_005] (Eterna round: R96, puzzle: Same State NG 1)	493 nM	198 nM	551 nM	–	–	–
GUUACAUGAGGAUCACCCAUGUAUGUGUGGGAGUAAGUGUCUUAGGAUAUCUAUCAUUUAAUUCAAGAGAAGGAAGAUUGUUGU [JMF's solution 100] (Eterna round: R96, puzzle: Same State NG 3)	126 nM	96.1 nM	103 nM	–	–	–
UGGCUCAGACGAGGAUAUAUGUAAUAACAUGAGGAUCACCCAUGUGUCGAGCUUCGGCUCGACACAUAGAAGGCGUCUGAGCCU [SSNG2/2-A3] (Eterna round: R96, puzzle: Same State NG 2)	12.7 nM	20.2 nM	33.3 nM	–	–	–
UGAACCUUCACAGGAUAUCAUGCGAAAAUUGCGUGAGAAGGGUGAAUGUGGUGUUCAUAGUUGCACAUGAGGAUCACCCAUGUA [SameState NG1 #52] (Eterna round: R96, puzzle: Same State NG 1)	107 nM	135 nM	156 nM	–	–	–
ACAUGAGAGAUAGGAUAUGCUGUACCUACAUGUGACAUGAGGAUCACCCAUGUGGUAAGUAUGAGGCAGAAGGAUCAGAUAUGU [Equivalence 49 - Jieux - Same State NG 2] (Eterna round: R96, puzzle: Same State NG 2)	13.6 nM	17.3 nM	23.2 nM	–	–	–
GCGAGCGUACUUGCAACAUGAGGAUCACCCAUGUUAACUGGACAGGAUAUGGUACCGUUUCGGUACCAGAAGGGUUUUUCAUGG [JL SSNG3 3.64] (Eterna round: R96, puzzle: Same State NG 3)	85.6 nM	50.6 nM	74.3 nM	–	–	–
UCUUGGUUUUUGCUCGUUUUUUGUGUUGAACAUGAGGAUCACCCAUGUAUUGUACGGUCCAGUUUGGUAAUGGUCCG [JMF 35] (puzzle: Sensor for hsa-mir-208a)	–	–	–	–	–	apparent KD of MS2 coat protein (MS2 coat protein [1]; [3]): 25 nM; apparent KD of MS2 coat protein (MS2 coat protein [1]; [4]): 14.9 nM; apparent KD of MS2 coat protein (MS2 coat protein [1]; [5]): 26.4 nM
AUCCUACAUGAGGAUCACCCAUGUGACGCCUCAAUAGGAUAUGCGUGUGCCUUGGCGCAUGCAGAAGGAUUGGAGC [JL Aveso mod 4] (puzzle: Same State 1)	–	–	–	–	–	apparent KD of MS2 coat protein (MS2 coat protein [1]; [3]): 84.6 nM; apparent KD of MS2 coat protein (MS2 coat protein [1]; [4]): 318 nM; apparent KD of MS2 coat protein (MS2 coat protein [1]; [5]): 279 nM
AGUGGUGCAACUGAUACCAGAUUUAUACGAGACAUGAGGAUCACCCAUGUCGAAAGACAAAUCCCUUGGCAGCAGACACGAUCCC [theeternabot_sameState_MS2_Theo_B_25]	–	–	–	9.88 nM	10.4 nM	apparent KD of MS2 coat protein (MS2 coat protein [2]; [8]): 9.65 nM
GCGAUACAUGAGGAUCACCCAUGUGCAGAUACCAGAGGUGCAUGCCUCCCUUGGCAGCUGCGACGCUCUGGCAUCUUGUGGGAUG [Same State Theophylline A GF20]	–	–	–	37.6 nM	86.4 nM	apparent KD of MS2 coat protein (MS2 coat protein [2]; [8]): 56.9 nM
GGUUACUCUACGGCCGCCACUGAUUAUUUAUAAUCCUGUACAUAAACAUGAGGAUCACCCAUGUACAGGACCGGGUAGUGUAACC [Tryptophan B 11]	–	–	–	29.9 nM	37.7 nM	apparent KD of MS2 coat protein (MS2 coat protein [2]; [9]): 33.5 nM
GAUAUACGUGCGGCCGCCACUGAGUGGCGGGCGUGUCGAGUUACAUGAGGAUCACCCAUGUCACUCAGGACCGGGCACGGAAUUU [Soveri]	–	–	–	7.64 nM	14.1 nM	apparent KD of MS2 coat protein (MS2 coat protein [2]; [9]): 11 nM
AGUAGUUGACAAAAGUCAGCUACAAUUGAAGGAGCGGGUGGGUGCCCAGGUAGGUCGCAAUAACAUGAGGAUCACCCAUGUAUAA [ArgAS 2 #BothOrNeither #OpenEnded]	–	–	–	20 nM	22.9 nM	apparent KD of MS2 coat protein (MS2 coat protein [2]; input ligand: none): 21 nM; apparent KD of MS2 coat protein (MS2 coat protein [2]; [9]): 27.2 nM; apparent KD of MS2 coat protein (MS2 coat protein [2]; [8]): 17.9 nM
CCCAGUUAUAACAAAGGAAUAAUACUCGAAGGAGCGUCAUAGUAGGCAGGUAGGUCGCGAGACAUGAGGAUCACCCAUGUAGAGA [qvvmullin]	–	–	–	34.3 nM	49.5 nM	apparent KD of MS2 coat protein (MS2 coat protein [2]; input ligand: none): 46 nM; apparent KD of MS2 coat protein (MS2 coat protein [2]; [9]): 32.2 nM; apparent KD of MS2 coat protein (MS2 coat protein [2]; [8]): 32.8 nM
